This is an account of results in patent US20130171174A1 (INDUSTRIAL TECHNOLOGY RESEARCH INSTITUTE, published 2013).

The target in this test is T1, human epidermal growth factor receptor (EGFR) on A431 cells (human, UniProt P00533 25-1210).
T1 construct: whole, on cells; The target is presented on fixed A431 cells
The test is described as follows: ELISA on fixed A431 cells, anti-human Fc-HRP detection, SigmaPlot fit. The method, then: A431 cells in a concentration of 4×10⁵ cell/ml were seeded in Corning CellBIND 96-well plate for 16-24 h before assay. After PBS wash, the A431 cells were fixed with BD CytoFix fixation buffer for 15-20 min at room temperature. After fixation and PBS wash procedure, the A431 cells were blocked with StartingBlock blocking buffer for 30 min at 37° C. Plates were washed three times with PBST wash buffer and incubated with the indicated concentrations of dAb-D2-hFc and VH-dAb-D2×4-Ig in 50 ul StartingBlock blocking buffer on ice for 1.5 h. Wells were washed three times with PBST wash buffer. After washing, the plate was incubated with HRP-conjugated anti-human Fc antibody diluted 1:10,000 in StartingBlock blocking buffer on ice for 1 hour. Plates were washed and incubated with TMB. Absorbance at 450 nm was read on a microplate reader.

B1: VH-dAb-D2×4-Ig tetrameric antibody (antibody, V domains shown)
V domain 1: QVQLLESGGGLVQPGGSLRLSCAASGYRFNSEAMGWVRQAPGKGLEWVSSINMRGGSTYYADSVKGRFTISRDNSKNTLYLQMNSLRAEDTAVYYCATVPRSMWWAGLTAKPIRYWGQGTLVTVSS
V domain 2: QVQLLESGGGLVQPGGSLRLSCAASGYRFNSEAMGWVRQAPGKGLEWVSSINMRGGSTYYADSVKGRFTISRDNSKNTLYLQMNSLRAEDTAVYYCATVPRSMWWAGLTAKPIRYWGQGTLVTVSS
notes: also called tetravalent antibody; tetravalent fusion protein; not shown: CH1, CH2 and CH3 of human IgG; CL of human IgG
By Kd is commonly meant a measure of binding affinity in units of concentration. For B1, the Kd is roughly 6 nM.
